Substrate in series [1]: C[C@H](O)[C@H](O)[C@H]1CNc2nc(N)[nH]c(=O)c2N1
As to the kind of experiment: (§1) Activity of tetrahydrobiopterin free nNOS.

Substrate in series [2]: CC(=O)C1Nc2c(nc(N)[nH]c2=O)NC1(C)C
Described as §1.

B1: Nitric oxide synthase 1 (Homo sapiens), P29475 (protein)
chain: MEDHMFGVQQIQPNVISVRLFKRKVGGLGFLVKERVSKPPVIISDLIRGGAAEQSGLIQAGDIILAVNGRPLVDLSYDSALEVLRGIASETHVVLILRGPEGFTTHLETTFTGDGTPKTIRVTQPLGPPTKAVDLSHQPPAGKEQPLAVDGASGPGNGPQHAYDDGQEAGSLPHANGLAPRPPGQDPAKKATRVSLQGRGENNELLKEIEPVLSLLTSGSRGVKGGAPAKAEMKDMGIQVDRDLDGKSHKPLPLGVENDRVFNDLWGKGNVPVVLNNPYSEKEQPPTSGKQSPTKNGSPSKCPRFLKVKNWETEVVLTDTLHLKSTLETGCTEYICMGSIMHPSQHARRPEDVRTKGQLFPLAKEFIDQYYSSIKRFGSKAHMERLEEVNKEIDTTSTYQLKDTELIYGAKHAWRNASRCVGRIQWSKLQVFDARDCTTAHGMFNYICNHVKYATNKGNLRSAITIFPQRTDGKHDFRVWNSQLIRYAGYKQPDGSTLGDPANVQFTEICIQQGWKPPRGRFDVLPLLLQANGNDPELFQIPPELVLEVPIRHPKFEWFKDLGLKWYGLPAVSNMLLEIGGLEFSACPFSGWYMGTEIGVRDYCDNSRYNILEEVAKKMNLDMRKTSSLWKDQALVEINIAVLYSFQSDKVTIVDHHSATESFIKHMENEYRCRGGCPADWVWIVPPMSGSITPVFHQEMLNYRLTPSFEYQPDPWNTHVWKGTNGTPTKRRAIGFKKLAEAVKFSAKLMGQAMAKRVKATILYATETGKSQAYAKTLCEIFKHAFDAKVMSMEEYDIVHLEHETLVLVVTSTFGNGDPPENGEKFGCALMEMRHPNSVQEERKSYKVRFNSVSSYSDSQKSSGDGPDLRDNFESAGPLANVRFSVFGLGSRAYPHFCAFGHAVDTLLEELGGERILKMREGDELCGQEEAFRTWAKKVFKAACDVFCVGDDVNIEKANNSLISNDRSWKRNKFRLTFVAEAPELTQGLSNVHKKRVSAARLLSRQNLQSPKSSRSTIFVRLHTNGSQELQYQPGDHLGVFPGNHEDLVNALIERLEDAPPVNQMVKVELLEERNTALGVISNWTDELRLPPCTIFQAFKYYLDITTPPTPLQLQQFASLATSEKEKQRLLVLSKGLQEYEEWKWGKNPTIVEVLEEFPSIQMPATLLLTQLSLLQPRYYSISSSPDMYPDEVHLTVAIVSYRTRDGEGPIHHGVCSSWLNRIQADELVPCFVRGAPSFHLPRNPQVPCILVGPGTGIAPFRSFWQQRQFDIQHKGMNPCPMVLVFGCRQSKIDHIYREETLQAKNKGVFRELYTAYSREPDKPKKYVQDILQEQLAESVYRALKEQGGHIYVCGDVTMAADVLKAIQRIMTQQGKLSAEDAGVFISRMRDDNRYHEDIFGVTLRTYEVTNRLRSESIAFIEESKKDTDEVFSS
For orientation: kcat means the number of substrate molecules converted per active site and unit of time at saturation. Consider B1, for which the kcat was determined as 0.136 s⁻¹ in series [1] and 0.0878 s⁻¹ in series [2].

These data come from ChEMBL document CHEMBL1143118, “6-Acetyl-7,7-dimethyl-5,6,7,8-tetrahydropterin is an activator of nitric oxide synthases” (Bioorg Med Chem Lett, 2008).
